In the DeepSol protein solubility set:

assay: soluble on expression in E. coli; label from the status in PepcDB or PDB records

Sequence | soluble on expression in E. coli
MAAERLDPWGAVEIKDYDRLLRTFGIRPFSEVLPLLRKAGMEPSFLMRRGIIFGHRDFDKILEAKARGERVAVLTGFMPSGKFHFGHKLTVDQLIYLQKNGFKVFVAIADAEAFAVRRIGREEAVRIAVEEYIANMIALGLDPKDTEFYFQTNRGTPYFRLIQLFSGKVTAAEMEAIYGELTPAKMMASLTQAADILHVQLDEYGGYRHVVVPVGADQDPHLRLTRDLADRMAGVVELERPASTYHKLQPGLDGRKMSSSRPDSTIFLTDPPEVARNKLFRALTGGRATAEEQRRLGGVPEVCSVYHMDLYHLMPDDGEVKHIYTSCRLGKILCGECKQIAWEKLERFLAEHQSRLEKAKTIAWKLVEPPRF | soluble
MGHHHHHHHHHHSSGHIDDDDKHMRGREEKAPEEPQPVKMPENNSVVEATWNDVQLEDSLGMEVGYRLIPMVDFQQDGELLGRIRSIRKKFAQDMGFLPPVVHIRDNMDLQPARYRILMKGVEIGSGDAYPGRWLAINPGTAAGTLPGEKTVDPAFGLDAIWIESALKEQAQIQGFTVVEASTVVATHLNHLIGQFSAELFGRQEAQQLLDRVSQEMPKLTEDLVPGVVTLTTLHKVLQNLLAEKVPIRDMRTILETLAEHAPLQSDPHELTAVVRVALGRAITQQWFPGNEEVQVIGLDTALERLLLQALQGGGGLEPGLADRLLAQTQEALSRQEMLGAPPVLLVNHALRPLLSRFLRRSLPQLVVLSNLELSDNRHIRMTATIGGK | soluble
MSLKQIPLAERMRPKTLADYVGQQHLIGSGAVLRQMIEQGQTPSMILWGPPGVGKTTLAEIIAHEVDAPFYTLSAVSSGVKEVREVIADIESNRGNLFDKGGRAILFIDEIHRFSKSQQDSLLAAVERGIVTLIGATTENPSFEVIRPLLSRCQVYVLKPQSDEDLLLLAHRAIDRDELLAAKHPVLEETEALLLYAGGDARKLLNILDLLATSEVEDRLVITNEKIRQRLQENPAAFDKGGELHYDIASAFIKSIRGSDPDAAIYWLARLIDGGEEPSFIARRLIISASEDIGLANPNAMLIAMACAEALDRIGWPEGRIPLAEATIYLATSEKSNSAYLAIDSALEYVRQSGNLPVPLHLRNAPTRLMADLDYGKGYKYSHDFPEHFVSQQYLPDKAANTSFWTPQMHTVHEAKLGERMKRWWKREKSQKDEGHHHHHH | soluble
MGSEEYFKKGAIKVEIKSGALLISPSEFKERYLPTLQDMPVLAFVRNIEAPKSWYSYLISNIEDQKSSIFPTNLPRILEISRRYFSSVKNGIVVIDALEYLTIYNGFEAIAKFLATLRDFAILDNGTVIIITEKKAWKDREWALLTSLLGKLEHHHHHH | soluble
MDLNATNYIRGCQSKTYDGKIFPGKGGEKQWICKDTIIHGDTNGACIPPRTQNLCVGELWDKSYGGRSNIKNDTKELLKEKIKNAIHKETELLYEYHDTGTAIISKNDKKGQKGKNDPNGLPKGFCHAVQRSFIDYKNMILGTSVNIYEHIGKLQEDIKKIIEKGTPQQKDKIGGVGSSTENVNAWWKGIEREMWDAVRCAITKINKKNNNSIFNGDECGVSPPTGNDEDQSVSWFKEWGEQFCIERLRYEQNIREACTINGKNEKKCINSKSGQGDKIQGACKRKCEKYKKYISEKKQEWDKQKTKYENKYVGKSASDLLKENYPECISANFDFIFNDNIEYKTYYPYGDYSSICSCEQVK | soluble
MAIKLKSPWEIERMREAGALLTEVVEEVARHVEPGVSTWELDQIAYEAIRKRKAKPAFLGLYGFPATLCTSVNEVVVHGIPSKEPLKEGDILSVDVGLIYQGFAADMARTFPVGRVSPEAERLIRDTEAAFWEGMKYLRPGFRLGDVGHAIQTFLESRGYGVVREFVGHGVGREIHEDPQVPNFGKPGTGPKIRPGMTLALEPMVTLRPAPVVILDDGWAASAGRGNLAAHYENTVLVTEEGPELLTGVALARAE | soluble
METQEKKFVPASKQIPTVNSGWLDRELGEAMSEAVRACLAHGKQSEITVKLKIQPQNIQSGTVKISHDVATKLPKEKREGGIVFATPDGNIQADDPAQGKLKLKQVSNTSSTLKMVRSN | not soluble
MPHAPQEQIAPLLTTEGWELLASLGPYREADSFSVNAHLRKAGHSPELVAAVLTQSRLRTRAEAKFGEFARQMLFTQAGLEQATRLNVAARHAERFAKAGISHVADLGCGLGADSMAMASMDISVTAVEMDETTAACATINLMPFPHATVVHADATSVELDGMDGVWLDPARRTTSTSGTKRIWDPEAFSPPLSFVERLAATGRAIGVKMGPGIPHDSVPPGCEAQWVSVGGDVTEVTLWFNAVARPGVRRAALVIGNQGAAEITSGADFDGGPVAAVGPVEGFLYEPDGAVIRAGLVADVAGRLGGHLVDEHIAYICAPELHDTPFARAFKVLEVMPYNVKALKAWVKNQGITVLDIKKRGTAVTPEELRKQLLPAKPVKGKDAKTATLVLTRIGEERVAVVVEPVTA | soluble
MKLNSPSRIHMGLIDLNGELGRVDGGVGVALDYPNFQIEGKESSEIELDSKIEIDEKDRENLESRIKNAARNVLDIIGEDGISLKINEAILSHSGLGSGTQVSLSTGKITSLVYGQDLNAETLAKITGRGGTSGIGVAAFETGGFIVDGGHTFGEGKDKIDFRPSSASKDVKPSPVLFRHDFDWDIVLTIPKGEQVCGDREVDIFRKFCPVPSEDVQKICRLVLMKMMPAVIEKDFNSFGMAVNELQNLGFKRAEVGLQKESLKQLLSKLQDVSYSGISSFGPTIYSLGDKDTITEISNEIFDKFGIDGEIISTKANNSGYEIIK | not soluble
MAHHHHHHMSIIHYSLQYNCKSFCIFTYFLIPSYWKCSTYNIPQYRSQNKNNFISFCIQFLVQQCVLIIHKVFNLPNTSLRNYFPQINKQINNQTFLNVVVKRKLNHGKLWGAHV | soluble
MGSDKIHHHHHHMPSPLLRRENKIKILRYILKNGKTTRNQLASNLNLAHSTLSYIIDELLDEGFLVFEEIKKKRGRPYQILSVNPEKFTAIGVKVGREEVRGVLFDARMNPLKEHRVQILSGMRNNDGYTRALRETIEQLRSENLLGVGICSSGIVKEGRVVVSHVMNVKDWDPRKVLKDLERILVMNDSDALCREISQRVNTDFLLVSYGVGIGASLWKDKKIHHIEMGHMLAASEGKCYCGQTGCLEYHSSEYAVLKSYLGKEIDFEDFITSEEEKYRQTIEELREKAREDFDSVKVHYEKAFKTFSVVLGNVIMGSGVSRVFFAGEGVVSEEMVKILEELVKVRFNRDFVGEVQFQVADANWMLGAARAVVDKYLPYIVK | not soluble
MEAKAIARYVRISPRKVRLVVDLIRGKSLEEARNILRYTNKRGAYFVAKVLESAAANAVNNHDMLEDRLYVKAAYVDEGPALKRVLPRARGRADIIKKRTSHITVILGEKHGK | soluble
MSLPAKRKLTMRHIRQMLRLAGSGTSSREIAVMLGIARSTVQDNLKRAAMAGLSWALASGLTDDVLEAKLFVHPGVKRGQRLRQEPDWGPLSIELKKPGVTLLILWEEYRSAHPDGYGYSRFCELFRGFEKRLSPTMRQEHIAGDKVFVDYSGKKVPIVDRKTGEIREAELFLGVLGASSYCTRGRSVHLGELLRRAWIFQHLGNREGHHHHHH | not soluble
MGSDKIHHHHHHMRRRHVGVGAELTAFRILAAISCERLFWETGSRNQAVKTRAESANREISMIRTAMIAATALAASLAASAPAFAADVVGLWATPGNGGQVEISRCGNSLCGKLVTSDHIKTNPGLKDIKNKDESQRSRTLKNLQMLYDFSGGPTKWTGGKVYNPEDGGVYAGTIELVSTTELKLKGCVVAPLCKTQKWTRIR | not soluble
MSLSSEQQAMIDYVLAGKDVIVDATVGSGKTTAIQRLCSIMGADHDVLYLTYSKLLKVDAQQRVRGAKVQNYHGIVYPHLLKAGIKCGISESIREFNKNFKHISRTFPSYDLLVIDEYQDINEDYAELLRNIKSVNPLMQIVMVGDLEQKVRSDTTLDPQEFAAQLCEDPVFAPFTQSFRIGEAMAAGLADAWNKPIVGANTAQQIEYRSFAEAVVLIQSTEPSKLLCLGSRNGQMSDALNVVERKSPAKFNKKTVFASIRDGDSQIAHPNDAAVFTTFDSSKGLERDTCVVFDYDEEFWDMRLGYPNVDPVVMRNVFLVAASRGKNKVVFVRSDSLQAAYEAGADWAAGLAVGVVDNNTEVAPEVDAHTPAEESKGDVGEVQSQIERMMGFIPVSVFKELPELAPSEYARPISVTEAFDFKYAENVEACFDLLDVKRLDNGKGAAIEVNRSDGLIDLSPTVGNFQEAVFFKDYNVHTALSAYPSQFAKNLKRLVKKNNSVWRNCLIVTAASTEQMRYVDQVRSSIPVAAEKALVSRLSTRLNADSRNQIPLILDGEAVQSKVVRTPMSFAGVADAVHKGVLYELKFVSELTHPMFLQLAMYLVMSGMKDGILWNTRTDEAWQVRVPDPKRFLNAVVLCVSKQDYRVGNFDLPSTGGEGHHHHHH | not soluble
MVERTAVFPAGRHSLYAEHRYSAAIRSGDLLFVSGQVGSREDGTPEPDFQQQVRLAFDNLHATLAAAGCTFDDIIDVTSFHTDPENQFEDIMTVKNEIFSAPPYPNWTAVGVTWLAGFDFEIKVIARIPEQ | soluble
MTNTGETKVIESHGTIKKIDSLSTMPYCGVETDENAVVEEKITLESGKSWSPKHYELLHERIERLIDEKQQFFSLEFFPPRFVNGVPNFLERVERLSEGGSVFVDMTWHMGSDPANVDKVTSSSSIAASMLDYCGVDTMLHMTCVQYNKADTLKHLEQAKAMGLRSILALRGDLPPGTELEDTHQFRALDMIRWIREEYGNYFSIGCAGYPLGHPQAPSYKADLMYLKAKCDAGANFVITQLFFEAETFEKFVRDCREIGITQPIIPGIMPIMGYESIKRIAKLSQLEIPQHILDDLEPIKHDDDAVQKYGTERCIEMCRRLLDNGTAPSIHLYTMNREGSIREILKSLGLWKLEGDRVFPWKNRSQHPIRCLESVRPIYWSFRPRSYITRTRDWDQFPNGRWGNSSSPAFGDVSSYYLSNLTTVRNADDRLAMFGANIESFEDVKRVFINYITQAPNADGVKVTVLPWTEAETGVQPETSLISEQLVWCNENGILTVNSQPSVNGAPSTDPLVGWGKPGGYCYQKAYLECFMTAELSDKLIQIIEREFPVRVNYHAINKDSTFDKTNSEETTPIAVTWGVFPGSEIAQPTVVDPLSFRAWRDEAYQMWMAQWGDFYPKESKSYGVIKAVHDEFRLVTLVDNDFQKPSVLFDVLQKALDELKK | not soluble
MELPLDKIKLPPGFSISVWANVPDARTMTLGDKGTVFVGSKSAGNVYAITENAGKRQIRIIASKLKMPNGVAFHDGALYVSSVNRILRFDNIENTLDQPLPPRIITADYPKETYHGWRFIAFGPDGWLYVPVGSSCNVCETDLEHYALISRIRPDGSNYEVFAKGVRNTEGFDWHPVTKALWFTDISREWMGDNLPPDELNHASNQGLDFGFPYCHGKEVSDPKLGAKRDCNKFIPPAVELDPHVAPMGMRFYTGTMFPAEYHNGIFIAEHGSWNRSTKIGYRLEWVQLEVNEVARKEIFAEGWLQENEAWGRPVDVLVMPDGALLVSDDMAGVVYRISYDQPLEHHHHHH | soluble
MPVVKSIYSSLKSFADYFSPSAKTSSQQVVILRMPGNPLELVGLVTRRTLEGLPDGFTQGDRVAVYLPMGYMIGGYTVFVPTEWVHPIQMSVEEAMRSSLIAWMARLEHHHHHH | not soluble
MSIYSKILVVADINNDEQPALARAVQLAQKSVSRSRITFFLSIYDFSYDMTSMLSVDERDAMRRGVIHQREQWMRKIAQPYLNDSFDFDVCVVWHNRPYEAIIAEVYAGGHDLLIKGTRKHDVLESVIFTPTDWHLLRKCPTPVLLIKNSDWPEQANILASVHVGSENPTHIDLNDAMVERLKEMSNRLDAEPYLVNAYPVTPANITIELPEFDPTTYTDAVRGHHLTAMKALRQKHGIDEEQT | not soluble
